Results on nine molecules are retold here after patent US20110135657A1 (published 2011).

Substitutions are numbered along the chain they refer to.

The target in assay [1] is T1, soluble human β-Klotho (Biacore, Example 8) (human, UniProt Q86Z14 53-996, limits assumed).
T1 construct: also called soluble β-Klotho
The experiment in a line: Biacore competition binning; test antibody injected over soluble receptor captured on immobilized 24H11, 17D8 or 1A2.1. An excerpt: (§1) Soluble human FGFR1c/β-Klotho ECD-Fc complex or β-Klotho was then captured on the immobilized antibody surfaces.
On the technique in general: Surface plasmon resonance follows binding to a sensor surface in real time, without labels.

In assay [2] the target is T2, denatured human FGFR1c (lysate of CHO cells stably expressing FGF21 receptor, non-reducing SDS-PAGE, blotted) (human, UniProt P11362 22-822).
T2 construct: DENATURED protein on a Western blot, not the native fold; also called denatured FGFR1c; denatured receptor proteins
T2 sequence (P11362 22-822 limits assumed): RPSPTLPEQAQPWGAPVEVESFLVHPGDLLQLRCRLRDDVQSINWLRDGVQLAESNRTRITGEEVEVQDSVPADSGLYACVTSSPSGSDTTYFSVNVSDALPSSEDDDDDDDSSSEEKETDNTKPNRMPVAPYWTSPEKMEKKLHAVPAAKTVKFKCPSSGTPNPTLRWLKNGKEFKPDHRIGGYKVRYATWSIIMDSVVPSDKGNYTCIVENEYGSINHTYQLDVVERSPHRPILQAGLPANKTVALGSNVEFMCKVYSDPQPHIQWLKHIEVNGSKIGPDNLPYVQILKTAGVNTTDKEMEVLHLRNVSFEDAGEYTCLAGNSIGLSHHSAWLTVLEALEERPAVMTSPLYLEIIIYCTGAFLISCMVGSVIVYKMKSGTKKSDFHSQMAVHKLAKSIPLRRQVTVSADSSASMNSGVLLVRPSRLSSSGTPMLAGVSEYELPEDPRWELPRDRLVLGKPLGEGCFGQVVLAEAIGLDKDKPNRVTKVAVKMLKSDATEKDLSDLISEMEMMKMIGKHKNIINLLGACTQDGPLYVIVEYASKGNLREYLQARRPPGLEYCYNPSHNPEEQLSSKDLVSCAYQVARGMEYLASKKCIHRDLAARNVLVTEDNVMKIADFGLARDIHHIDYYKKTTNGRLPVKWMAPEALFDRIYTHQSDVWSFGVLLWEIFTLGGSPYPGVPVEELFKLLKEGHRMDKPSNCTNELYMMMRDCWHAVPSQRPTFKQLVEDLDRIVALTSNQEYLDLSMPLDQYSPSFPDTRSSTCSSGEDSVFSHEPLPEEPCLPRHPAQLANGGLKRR
The experiment in a line: Western blot of CHO/FGF21 receptor lysate, non-reducing SDS-PAGE (denatured protein). As for the experimental part: 20 μl of cell lysate was loaded per lane on adjacent lanes separated with a molecular weight marker lane on 4-20% SDS-PAGE gels. Following electrophoresis, the gels were blotted onto 0.2μ nitrocellulose filters. The blots were treated with Tris-buffered saline/Triton-X (TBST) plus 5% non-fat milk (blocking buffer) for 30 minutes. The blots were then cut along the molecular weight marker lanes. […] Blots were incubated with the antibodies for one hour at room temperature, followed by three washes with TBST+1% milk. The blots were then probed with anti-human or anti-goat IgG-HRP secondary antibodies for 20 min. Blots were given three 15 min. washes with TBST followed by treatment with Pierce Supersignal West Dura developing reagent (1 min.) and exposure to Kodak Biomax X-ray film.
(In general: In western blotting, separated proteins are transferred to a membrane and probed.)

Assay [3] deals with T3, human FGF21 receptor (FGF21R): full length human FGFR1c and full length human β-Klotho co-expressed at the … (human, UniProt P11362 22-822; Q86Z14 53-1044). The experiment in a line: cell-based or functional assay.
Assay [4] concerns the target T4, soluble human FGFR1c/β-Klotho ECD-Fc complex (human).
T4 construct: Both entries start at residue 1 of the precursors; also called soluble FGF21R; soluble FGF21R-Fc
The experiment in a line: Biacore, antibody immobilized on the sensor chip.
From the text: as §1

Assay [5] concerns the target T3, human FGF21 receptor (FGF21R): full …. Description: cell-based or functional assay. The source holds these as a separate data set.
The target of assay [6] is T5, His-tagged human recombinant β-Klotho (human, UniProt Q86Z14 53-997, limits assumed).
T5 construct: also called β-Klotho captured on anti-His; human β-Klotho; not shown: His tag
Description: Biacore, 100 nM mAb over His-tagged human β-Klotho captured on anti-His antibody. As for the experimental part: Briefly, mouse anti-His antibody (Qiagen, Valencia, Calif.) was immobilized on a CM5 chip using amine coupling reagents (General Electronics, Piscataway, N.J.). His-tagged human recombinant β-Klotho was captured on the second flow cell to ˜100RU. The first flow cell was used as a background control. 100 nM mAbs were diluted in PBS plus 0.1 mg/ml BSA, 0.005% P20 and injected over the β-Klotho captured on anti-His antibody surface. For kinetic measurement, 0.78-100 nM mAbs diluted in PBS plus 0.1 mg/ml BSA, 0.005% P20 were injected over the β-Klotho surface.

As usually defined, the koff is the rate constant with which the complex falls apart.

T4 sequence (chain, as listed by the source limits assumed, chain 1 of 2): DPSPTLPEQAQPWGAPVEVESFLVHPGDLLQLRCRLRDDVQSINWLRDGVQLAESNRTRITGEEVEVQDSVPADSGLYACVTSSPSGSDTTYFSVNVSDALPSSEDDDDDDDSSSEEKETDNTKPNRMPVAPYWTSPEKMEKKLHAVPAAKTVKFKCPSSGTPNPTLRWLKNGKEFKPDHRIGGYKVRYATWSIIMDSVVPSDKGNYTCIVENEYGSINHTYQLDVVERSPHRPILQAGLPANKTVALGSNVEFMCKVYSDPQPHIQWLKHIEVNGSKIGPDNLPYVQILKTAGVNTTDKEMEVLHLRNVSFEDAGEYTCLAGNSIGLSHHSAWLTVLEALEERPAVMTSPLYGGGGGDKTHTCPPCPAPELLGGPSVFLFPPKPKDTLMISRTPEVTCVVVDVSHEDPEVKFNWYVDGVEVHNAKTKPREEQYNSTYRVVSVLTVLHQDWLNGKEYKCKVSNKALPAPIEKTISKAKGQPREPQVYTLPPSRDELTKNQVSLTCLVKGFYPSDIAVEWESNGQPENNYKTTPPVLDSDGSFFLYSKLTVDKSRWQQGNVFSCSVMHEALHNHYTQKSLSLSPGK
T4 sequence (chain, as listed by the source limits assumed, chain 2 of 2): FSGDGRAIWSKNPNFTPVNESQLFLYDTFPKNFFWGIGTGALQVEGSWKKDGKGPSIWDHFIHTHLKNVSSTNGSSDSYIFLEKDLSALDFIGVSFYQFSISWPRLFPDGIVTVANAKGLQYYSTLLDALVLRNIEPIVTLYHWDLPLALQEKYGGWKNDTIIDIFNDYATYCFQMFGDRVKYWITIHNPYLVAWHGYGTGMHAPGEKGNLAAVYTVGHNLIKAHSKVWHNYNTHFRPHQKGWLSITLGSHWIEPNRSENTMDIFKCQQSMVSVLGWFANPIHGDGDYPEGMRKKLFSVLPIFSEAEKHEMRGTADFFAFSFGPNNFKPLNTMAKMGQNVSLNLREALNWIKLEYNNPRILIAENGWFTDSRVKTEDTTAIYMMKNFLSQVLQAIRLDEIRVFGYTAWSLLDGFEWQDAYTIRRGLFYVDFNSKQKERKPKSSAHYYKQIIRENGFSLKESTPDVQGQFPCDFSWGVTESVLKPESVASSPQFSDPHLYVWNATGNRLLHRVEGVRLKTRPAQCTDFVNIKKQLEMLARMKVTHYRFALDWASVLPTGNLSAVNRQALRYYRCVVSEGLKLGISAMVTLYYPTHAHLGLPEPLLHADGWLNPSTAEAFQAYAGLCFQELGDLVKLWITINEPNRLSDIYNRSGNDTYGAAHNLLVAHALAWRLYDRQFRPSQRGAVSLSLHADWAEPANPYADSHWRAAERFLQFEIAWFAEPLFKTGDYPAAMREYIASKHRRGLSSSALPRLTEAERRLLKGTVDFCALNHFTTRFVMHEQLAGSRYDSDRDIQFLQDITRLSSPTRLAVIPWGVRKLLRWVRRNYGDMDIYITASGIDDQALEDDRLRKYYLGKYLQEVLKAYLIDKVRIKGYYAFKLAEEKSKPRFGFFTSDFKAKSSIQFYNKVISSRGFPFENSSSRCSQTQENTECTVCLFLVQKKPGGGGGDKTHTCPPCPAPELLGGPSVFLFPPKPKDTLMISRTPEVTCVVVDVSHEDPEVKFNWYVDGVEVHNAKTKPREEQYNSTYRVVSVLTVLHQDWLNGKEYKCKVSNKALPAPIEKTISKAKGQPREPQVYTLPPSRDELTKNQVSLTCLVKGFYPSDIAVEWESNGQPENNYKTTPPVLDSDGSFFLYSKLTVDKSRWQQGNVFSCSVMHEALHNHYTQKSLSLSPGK

B1: 12E4 (antibody, human IgG2, kappa, V domains shown)
VH: EVQLLESGGGLVQPGGSLRLSCAASRFTFSTYAMSWVRQAPGKGLEWVSGISGSGVSTYYADSVKGRFTISRDNSKNTLYLQMNSLRAEDTAVYYCAKSLIVVIVYALDYWGQGTLVTVSS
VL: EIVLTQSPGTLSLSPGERATLSCRASQNFDSNYLAWYQQKPGQAPRLLIYGASSRATGIPDNFSGSGSGTDFTLTISRLEPEDFAMYYCQQYGSSPLTFGGGTKVEIKR
notes: fully human monoclonal antibody; full chains H8/L7; also called 12E4.1
For the molecule B1, the binding result is listed as “binds” in assay [1] and “no binding” in assay [2]. In addition, the “Activity (%) = % of FGF21 activity, luciferase reporter, AM-1/D FGFR1c+β-Klotho Luc clone; antibody combined with isotype IgG2k control” value (from here on “Activity (%) = % of FGF21 activity”) in assay [3] was 25.4 % of FGF21 activity.

B2: 26H11 (antibody, human IgG2, kappa, V domains shown)
VH: B1 VH with S17Y, R26G, G50A, Y59N, I104M, A107V
VL: B1 VL with N28S, F29V, D30S, S31G, N62R, T103S
notes: fully human monoclonal antibody; full chains H7/L6; also called 26H11.1
For the molecule B2, the binding result in assay [1] is listed as “binds”; in assay [2] it was “no binding”. Moreover, the “Activity (%) = % of FGF21 activity” value in assay [3] was 17.9 % of FGF21 activity.

B3: 17D8 (antibody, human IgG2, kappa, V domains shown)
VH: B1 VH with S17Y, R26G, G50A, I104M, A107V
VL: B1 VL with N28S, F29V, D30S, S31G, N62R, M86V, S95A
Consider B3, for which the binding result in assay [1] and in assay [4] was “binds” in each case.

B4: 20D4 (antibody, human IgG2, kappa, V domains shown)
VH: QVQLVQSGAEVKKPGASVKVSCKVSGYTLTDLSMHWVRQAPGKGLEWMGGFDPEDGETIYAQKFQGRITMTEDTSTDTAYMELSSLRSEDTAVYYCASIVVVPAAIQSYYYYYGMGVWGQGTTVTVSS
VL: DIQLTQSPSSLSASIGDRVTITCRASQDIRYDLGWYQQKPGKAPKRLIYAASSLQSGVPSRFSGSGSGTEFTLTVSSLQPEDFATYYCLQHNSYPLTFGGGTKVEIER
notes: fully human monoclonal antibody; full chains H12/L12; also called 20D4.1
Take B4: the figures for the binding result in assay [1] and in assay [2] were “binds” and “no binding”, respectively. Moreover, the “Activity (%) = % of FGF21 activity” value in assay [3] is 12.5 % of FGF21 activity.

B5: 18B11.1 (antibody, human IgG2, kappa, V domains shown)
VH: EVQLVESGGGLVKPGGSLRLSCAASGFTFSDAWMSWVRQAPGKGLEWVGRIKSKTDGGTTDYAAPVKGRFTISRDDSKNTLYLQMNSLKTEDTAVYFCTSTYSSGWYVWDYYGMDVWGQGTTVTVSS
VL: DIVMTQSPLSLPVTPGEPASISCRSSQSLLYYNGFTYLDWFLQKPGQSPHLLIYLGSNRASGVPDRFSGSVSGTDFTLKISRVEAEDVGVYYCMQSLQTPFTFGPGTKVDIKR
notes: fully human monoclonal antibody; full chains H11/L10
Regarding B5, the binding result in assay [2] is “no binding”.

B6: 22H5 (antibody, human IgG2, lambda, V domains shown)
VH: QVTLKESGPVLVKPTETLTLTCTVSGFSLSNARMGVSWIRQPPGKALEWLAHIFSNDEKSYSTSLKSRLTISKDTSKSQVVLTMTNMDPVDTATYYCARILLVGAYYYCGMDVWGQGTTVTVSS
VL: SYVLTQPPSVSVAPGQTARITCGGNNIGSQSVHWYQQKPGQAPVLVVYDDSDRPSGIPERFSGSNSGNTATLTISRVEAGDEADYYCQVWDNTSDHVVFGGGTKLTVLG
notes: fully human monoclonal antibody; full chains H2/L2; also called 22H5 (WT)
As for B6, the “EC50 (nM), Erk-phosphorylation, human adipocyte assay” value (“EC50 (nM), Erk-phosphorylation” for short) in assay [5] is 2.27 nM. Moreover, the off-rate constant (koff) in assay [6] amounted to 0.00031 s⁻¹.

B7: 22H5 variant, light chain N92Q (antibody, human IgG2, lambda, V domains shown)
VH: B6 VH
VL: B6 VL with N92Q
notes: variant chain entry already carries the change; also called #7, P60897.3
On to B7, for which, in assay [5], the “EC50 (nM), Erk-phosphorylation” value is 3.33 nM. The dissociation rate constant (koff) in assay [6] was 0.00052 s⁻¹.

B8: 22H5 variant, heavy chain C109S (antibody, human IgG2, lambda, V domains shown)
VH: B6 VH with C109S
VL: B6 VL
notes: variant chain entry already carries the change; also called #23, P60899.2
Turning to B8, the dissociation rate constant (koff) in assay [6] is 0.0003 s⁻¹.

B9: 22H5 variant, light chain S94A (antibody, human IgG2, lambda, V domains shown)
VH: B6 VH
VL: B6 VL with S94A
notes: variant chain entry already carries the change; also called #6, P60898.3
Consider B9, for which, in assay [5], the “EC50 (nM), Erk-phosphorylation” value is 1.98 nM. Also, the koff in assay [6] turned out to be 0.00035 s⁻¹.
